Test results from patent US20240092889A1 (Chugai, published 2024).

B1: recombinant human C1r2s2 tetramer (other)
chain 1: EPTMYGEILSPNYPQAYPSEVEKSWDIEVPEGYGIHLYFTHLDIELSENCAYDSVQIISGDTEEGRLCGQRSSNNPHSPIVEEFQVPYNKLQVIFKSDFSNEERFTGFAAYYVATDINECTDFVDVPCSHFCNNFIGGYFCSCPPEYFLHDDMKNCGVNCSGDVFTALIGEIASPNYPKPYPENSRCEYQIRLEKGFQVVVTLRREDFDVEAADSAGNCLDSLVFVAGDRQFGPYCGHGFPGPLNIETKSNALDIIFQTDLTGQKKGWKLRYHGDPMPCPKEDTPNSVWEPAKAKYVFRDVVQITCLDGFEVVEGRVGATSFYSTCQSNGKWSNSKLKCQPVDCGIPESIENGKVEDPESTLFGSVIRYTCEEPYYYMENGGGGEYHCAGNGSWVNEVLGPELPKCVPVCGVPREPFEEKQRIIGGSDADIKNFPWQVFFDNPWAGGALINEYWVLTAAHVVEGNREPTMYVGSTSVQTSRLAKSKMLTPEHVFIHPGWKLLEVPEGRTNFDNDIALVRLKDPVKMGPTVSPICLPGTSSDYNLMDGDLGLISGWGRTEKRDRAVRLKAARLPVAPLRKCKEVKVEKPTADAEAYVFTPNMICAGGEKGMDSCKGDSGGAFAVQDPNDKTKFYAAGLVSWGPQCGTYGLYTRVKNYVDWIMKTMQENSTPRED
chain 2: SIPIPQKLFGEVTSPLFPKPYPNNFETTTVITVPTGYRVKLVFQQFDLEPSEGCFYDYVKISADKKSLGRFCGQLGSPLGNPPGKKEFMSQGNKMLLTFHTDFSNEENGTIMFYKGFLAYYQAVDLDECASRSKLGEEDPQPQCQHLCHNYVGGYFCSCRPGYELQEDRHSCQAECSSELYTEASGYISSLEYPRSYPPDLRCNYSIRVERGLTLHLKFLEPFDIDDHQQVHCPYDQLQIYANGKNIGEFCGKQRPPDLDTSSNAVDLLFFTDESGDSRGWKLRYTTEIIKCPQPKTLDEFTIIQNLQPQYQFRDYFIATCKQGYQLIEGNQVLHSFTAVCQDDGTWHRAMPRCKIKDCGQPRNLPNGDFRYTTTMGVNTYKARIQYYCHEPYYKMQTRAGSRESEQGVYTCTAQGIWKNEQKGEKIPRCLPVCGKPVNPVEQRQQIIGGQKAKMGNFPWQVFTNIHGRGGGALLGDRWILTAAHTLYPKEHEAQSNASLDVFLGHTNVEELMKLGNHPIRRVSVHPDYRQDESYNFEGDIALLELENSVTLGPNLLPICLPDNDTFYDLGLMGYVSGFGVMEEKIAHDLRFVRLPVANPQACENWLRGKNRMDVFSQNMFCAGHPSLKQDACQGDAGGVFAVRDPNTDRWVATGIVSWGIGCSRGYGFYTKVLNYVDWIKKEMEEED
notes: C1s and C1r co-expressed in HEK293/FreeStyle 293-F and purified from conditioned medium

Legend:
[1] = molecular target: T1, native human C1q (CompTech) (human, UniProt P02745 23-245; P02746 28-253; P02747 29-245); assay: SPR (BIACORE T200), human C1r2s2 captured by immobilised IPN009VH2Vk3-SG1148, native human C1q injected at about 100 nM, pH 7.4, 37 C
T1 construct: the subunit make-up A/B/C is from general knowledge
Description: (§1) Recombinant human C1r2s2 tetramer was first captured onto the sensor surface by the anti-C1r2s2 antibody. The capture levels were aimed at 200 resonance unit (RU). […] The sensor surface was regenerated each cycle with 3 M MgCl2. Sensorgrams were obtained using BIACORE® T200 Evaluation software, version 2.0 (GE Healthcare). […] For comparison of these sensorgrams, binging response of C1r2s2 was normalized as 100 RU. […] For comparison of these sensorgrams, baseline (before injecting antibodies) was adjusted to 0 RU.

[2] = molecular target: B1; assay: SPR (BIACORE T200), IPN009VH2Vk3-SG1148 immobilised on the chip, human C1r2s2 injected for capture, pH 7.4, 37 C
Description: as §1

[3] = molecular target: B1; assay: SPR (BIACORE T200), 37 C, ratio of KD at pH 5.8 to KD at pH 7.4
Description: (§2) KD (dissociation constant) value of each samples at pH 7.4 and pH 5.8 are determined at 37 degrees C. using BIACORE® T200 instrument (GE Healthcare). Purified Mouse Anti-Human Ig kappa Light Chain (GE Healthcare) can be immobilized onto all flow cells of a CMS sensor chip using an amine coupling kit (GE Healthcare). 20 mM ACES, 150 mM NaCl, 1.2 mM CaCl2, 1 mg/mL BSA (IgG-free), 1 mg/mL CMD, 0.05% Tween® 20, 0.005% NaN3, pH 7.4 or pH 5.8 buffer were used as running buffer. Each antibody can be captured onto the sensor surface by Anti-Human Ig kappa Light chain. Antibody capture levels are aimed at 50 resonance unit (RU). […] Sensor surface is regenerated each cycle with, e.g., Glycine pH 2.0 (GE Healthcare). KD values were obtained using BIACORE® T200 Evaluation software, version 2.0 (GE Healthcare).

[4] = molecular target: B1; assay: SPR (BIACORE T200), 37 C, Ab captured via anti-human Ig kappa, human C1r2s2 as analyte, pH 7.4; pH 7.4, 37 C
Description: as §2

[5] = molecular target: B1; assay: SPR (BIACORE T200), 37 C, Ab captured via anti-human Ig kappa, human C1r2s2 as analyte, pH 5.8; pH 5.8 (acidic buffer), 37 C; antibody engineered for pH-dependent binding
Description: as §2

[6] = molecular target: B1; assay: SPR (BIACORE T200), 37 C, Ab captured via anti-human Ig kappa, human C1r2s2 as analyte, pH 7.4; pH 7.4, 37 C; kinetic KD, C1r2s2 up to 100-400 nM
Description: as §2

T1 sequence (P02745 23-245 limits assumed, chain 1 of 3): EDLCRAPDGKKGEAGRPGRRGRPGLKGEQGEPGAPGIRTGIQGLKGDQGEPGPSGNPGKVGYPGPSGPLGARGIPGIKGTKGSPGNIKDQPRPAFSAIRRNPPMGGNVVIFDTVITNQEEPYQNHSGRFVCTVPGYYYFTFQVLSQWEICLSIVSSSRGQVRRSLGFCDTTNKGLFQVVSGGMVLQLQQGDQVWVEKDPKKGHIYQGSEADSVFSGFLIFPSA
T1 sequence (P02746 28-253 limits assumed, chain 2 of 3): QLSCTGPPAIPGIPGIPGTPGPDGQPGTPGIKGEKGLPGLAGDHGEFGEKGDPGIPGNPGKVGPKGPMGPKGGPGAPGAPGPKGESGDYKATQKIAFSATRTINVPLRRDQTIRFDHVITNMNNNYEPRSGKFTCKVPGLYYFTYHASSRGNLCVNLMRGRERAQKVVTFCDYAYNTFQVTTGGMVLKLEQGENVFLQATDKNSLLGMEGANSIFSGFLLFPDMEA
T1 sequence (P02747 29-245 limits assumed, chain 3 of 3): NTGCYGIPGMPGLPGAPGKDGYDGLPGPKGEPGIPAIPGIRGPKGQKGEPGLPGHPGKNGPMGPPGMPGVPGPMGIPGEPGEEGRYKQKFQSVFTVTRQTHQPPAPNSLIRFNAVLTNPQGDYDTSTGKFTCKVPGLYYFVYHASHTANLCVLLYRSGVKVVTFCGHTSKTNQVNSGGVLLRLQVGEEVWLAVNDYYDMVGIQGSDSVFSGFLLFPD

B1: binds [1].

B2: IPN009VH2VK3-SG1148 (antibody, human IgG1, kappa, V domains shown)
VH: EVMLVESGGGLVKPGGSLRLSCAASGFTFSNYAMSWVRQAPGKGLEWVATISSGGSHTYYLDSVKGRFTISRDNSKDTLYLQMNSLRAEDTALYYCARLFTGYAMDYWGQGTLVTVSS
VL: QIVLTQSPATLSLSPGERATLSCTASSSVSSSYLHWYQQKPGKAPKLWIYSTSNLASGVPSRFSGSGSGTDYTLTISSLQPEDFATYYCHQYYRLPPITFGQGTKLEIKR
notes: also called anti-human C1r2s2 antibody
B2: binds [2].

B3: COS0637pHv3-TT91R (antibody, V domains shown)
VH: QVQLVESGGGVVQPGRSLRLSCAASGFTFSAYAMNWIRQPPGKGLEWIGLIYGSGHEFYASWAEERVTISVDTSKNQFSLKLSSVTAADTAVYYCARGRSKNYVSGFHLWGQGTLVTVSS
VL: DIQMTQSPSSLSASVGDRVTITCQASQILHDKKNLAWYQQKPGQPPKLLIYQASQLESGVPSRFSGSGSGTDFTLTISSLQPEDFATYYCHGEFSYESADLNQFGQGTKVEIKR
In the case of B3, the “KD (pH 5.8)/KD (pH 7.4)” value [3] is reported as 278, the Kd [4] is reported as 7.66 nM and the Kd [5] is reported as 2130 nM.

B4: COS0637pHv5-TT91R (antibody, V domains shown)
VH: QVQLVESGGGVVQPGRSLRLSCAASGFSFSAYAMNWIRQPPGKGLEWIGLIYGSGHEFYASWAEERVTISVDTSKNQFSLKLSSVTAADTAVYYCARGRSKNYVSGFHLWGQGTLVTVSS
VL: DIQMTQSPSSLSASVGDRVTITCQASGILHDKKNLAWYQQKPGQPPKLLIYGASQLESGVPSRFSGSGSGTDFTLTISSLQPEDFATYYCHGEFSYEEADLNTFGQGTKVEIKR
Binder B4 has a Kd [6] of 6.43 nM.
